Source: US20240190962A1 (IMMUNOWAKE, published 2024)
Residue numbers refer to the chain shown, from its start. Names may count otherwise.

T1: human IL-2 receptor (IL-2Rα, IL-2Rβ, IL-2Rγ) (human, UniProt P01589 22-272; P14784 27-551; P31785 23-369)
T1 sequence (looked up) 1: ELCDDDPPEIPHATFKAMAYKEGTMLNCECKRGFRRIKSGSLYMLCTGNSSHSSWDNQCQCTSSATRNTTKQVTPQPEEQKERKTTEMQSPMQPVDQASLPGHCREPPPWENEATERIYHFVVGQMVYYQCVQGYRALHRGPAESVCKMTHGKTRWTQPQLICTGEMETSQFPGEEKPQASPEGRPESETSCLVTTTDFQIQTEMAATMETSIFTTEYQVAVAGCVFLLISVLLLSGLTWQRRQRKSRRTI
T1 sequence (looked up) 2: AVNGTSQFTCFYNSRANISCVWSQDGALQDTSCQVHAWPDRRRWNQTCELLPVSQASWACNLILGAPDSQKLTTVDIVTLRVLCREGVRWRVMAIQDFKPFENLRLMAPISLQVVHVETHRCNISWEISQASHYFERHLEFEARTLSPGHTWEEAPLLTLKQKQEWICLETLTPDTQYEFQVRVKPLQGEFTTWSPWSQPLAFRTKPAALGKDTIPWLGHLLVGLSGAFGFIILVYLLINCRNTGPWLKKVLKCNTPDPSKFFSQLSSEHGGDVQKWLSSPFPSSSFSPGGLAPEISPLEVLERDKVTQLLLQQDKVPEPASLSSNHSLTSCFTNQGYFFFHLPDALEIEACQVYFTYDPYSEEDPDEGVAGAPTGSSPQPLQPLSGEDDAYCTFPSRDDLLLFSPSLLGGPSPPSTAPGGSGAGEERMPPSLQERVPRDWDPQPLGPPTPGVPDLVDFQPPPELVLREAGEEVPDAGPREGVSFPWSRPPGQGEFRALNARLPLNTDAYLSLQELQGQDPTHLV
T1 sequence (looked up) 3: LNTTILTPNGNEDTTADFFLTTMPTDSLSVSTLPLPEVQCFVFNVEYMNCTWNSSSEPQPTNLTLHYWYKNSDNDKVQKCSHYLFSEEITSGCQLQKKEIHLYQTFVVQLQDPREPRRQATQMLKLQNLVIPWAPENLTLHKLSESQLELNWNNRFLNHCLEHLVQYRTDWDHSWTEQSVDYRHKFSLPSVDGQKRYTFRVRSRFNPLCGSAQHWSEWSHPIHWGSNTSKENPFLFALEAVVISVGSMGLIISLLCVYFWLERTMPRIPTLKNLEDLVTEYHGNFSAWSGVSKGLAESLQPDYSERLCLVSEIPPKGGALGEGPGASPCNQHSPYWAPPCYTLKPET

B1: IL-12(E59A/F60A)/PD-L1(mut2)-Fc (Fc fusion)
chain 1: FTVTVPKDLYVVEYGSNMTIECKFPVEKQLDLAALQVYWMMEDKNIIQFVHGEEDLKVQHSSYRQRARLLKDQLSLGNAALQITDVKLQDAGVYTCLIAYKGADYKRITVKVNAPYNKINQRILVVDPVTSEHELTCQAEGYPKAEVIWTSSDHQVLSGKTTTTNSKREEKLFNVTSTLRINTTTNEIFYCTFRRLDPEENHTAELVIPELPLAHPPNERGGGGSGGGIWELKKDVYVVELDWYPDAPGEMVVLTCDTPEEDGITWTLDQSSEVLGSGKTLTIQVKAAGDAGQYTCHKGGEVLSHSLLLLHKKEDGIWSTDILKDQKEPKNKTFLRCEAKNYSGRFTCWWLTTISTDLTFSVKSSRGSSDPQGVTCGAATLSAERVRGDNKEYEYSVECQEDSACPAAEESLPIEVMVDAVHKLKYENYTSSFFIRDIIKPDPPKNLQLKPLKNSRQVEVSWEYPDTWSTPHSYFSLTFCVQVQGKSKREKKDRVFTDKTSATVICRKNASISVRAQDRYYSSSWSEWASVPCSGGGGSGGGSGGGGSRNLPVATPDPGMFPCLHHSQNLLRAVSNMLQKARQTLEFYPCTSEEIDHEDITKDKTSTVEACLPLELTKNESCLNSRETSFITNGSCLASRKTSFMMALCLSSIYEDLKMYQVEFKTMNAKLLMDPKRQIFLDQNMLAVIDELMQALNFNSETVPQKSSLEEPDFYKTKIKLCILLHAFRIRAVTIDRVMSYLNASGGGGSGGGDKTHTCPPCPAPEDEGGPSVFLFPPKPKDTLMISRTPEVTCVVVDVSHEDPEVKFNWYVDGVEVHNAKTKPREEQYNSTYRVVSVLTVLHQDWLNGKEYKCKVSNKALPAPIEKTISKAKGQPREPQVYVYPPSREEMTKNQVSLTCLVKGFYPSDIAVEWESNGQPENNYKTTPPVLDEDGSFALVSKLTVDKSRWQQGNVFSCSVMHEALHNHYTQKSLSLSPGK
chain 2: FTVTVPKDLYVVEYGSNMTIECKFPVEKQLDLAALQVYWMMEDKNIIQFVHGEEDLKVQHSSYRQRARLLKDQLSLGNAALQITDVKLQDAGVYTCLIAYKGADYKRITVKVNAPYNKINQRILVVDPVTSEHELTCQAEGYPKAEVIWTSSDHQVLSGKTTTTNSKREEKLFNVTSTLRINTTTNEIFYCTFRRLDPEENHTAELVIPELPLAHPPNERGGGGSGGGDKTHTCPPCPAPEKKGGPSVFLFPPKPKDTLMISRTPEVTCVVVDVSHEDPEVKFNWYVDGVEVHNAKTKPREEQYNSTYRVVSVLTVLHQDWLNGKEYKCKVSNKALPAPIEKTISKAKGQPREPQVYVLPPSREEMTKNQVSLLCLVKGFYPSDIAVEWESNGQPENRYMTWPPVLDSDGSFFLYSKLTVDKSRWQQGNVFSCSVMHEALHNHYTQKSLSLSPGK
B2: IL-2(L18R/Q22E/R38D/K43E/E61R)/IL-12(E59A/F60A)/PD-L1(mut2)-Fc (Fc fusion)
chain 1: B1 chain 1
chain 2: FTVTVPKDLYVVEYGSNMTIECKFPVEKQLDLAALQVYWMMEDKNIIQFVHGEEDLKVQHSSYRQRARLLKDQLSLGNAALQITDVKLQDAGVYTCLIAYKGADYKRITVKVNAPYNKINQRILVVDPVTSEHELTCQAEGYPKAEVIWTSSDHQVLSGKTTTTNSKREEKLFNVTSTLRINTTTNEIFYCTFRRLDPEENHTAELVIPELPLAHPPNERGGGSGAPTSSSTKKTQLQLEHLRLDLEMILNGINNYKNPKLTDMLTFEFYMPKKATELKHLQCLERELKPLEEVLNLAQSKNFHLRPRDLISNINVIVLELKGSETTFMCEYADETATIVEFLNRWITFCQSIISTLTGGGGSGGGDKTHTCPPCPAPEKKGGPSVFLFPPKPKDTLMISRTPEVTCVVVDVSHEDPEVKFNWYVDGVEVHNAKTKPREEQYNSTYRVVSVLTVLHQDWLNGKEYKCKVSNKALPAPIEKTISKAKGQPREPQVYVLPPSREEMTKNQVSLLCLVKGFYPSDIAVEWESNGQPENRYMTWPPVLDSDGSFFLYSKLTVDKSRWQQGNVFSCSVMHEALHNHYTQKSLSLSPGK
B3: IL-2(R38D/K43E/E61R/Q126T)/IL-12(E59A/F60A)/PD-L1(mut2)-Fc (Fc fusion)
chain 1: B1 chain 1
chain 2: B2 chain 2 with R243L, E247Q, Q351T
B4: PD-L1(mut2)-Fc/IL-12(E59A/F60A) (Fc fusion)
chain 1: FTVTVPKDLYVVEYGSNMTIECKFPVEKQLDLAALQVYWMMEDKNIIQFVHGEEDLKVQHSSYRQRARLLKDQLSLGNAALQITDVKLQDAGVYTCLIAYKGADYKRITVKVNAPYNKINQRILVVDPVTSEHELTCQAEGYPKAEVIWTSSDHQVLSGKTTTTNSKREEKLFNVTSTLRINTTTNEIFYCTFRRLDPEENHTAELVIPELPLAHPPNERGGGGSGGGDKTHTCPPCPAPEDEGGPSVFLFPPKPKDTLMISRTPEVTCVVVDVSHEDPEVKFNWYVDGVEVHNAKTKPREEQYNSTYRVVSVLTVLHQDWLNGKEYKCKVSNKALPAPIEKTISKAKGQPREPQVYVYPPSREEMTKNQVSLTCLVKGFYPSDIAVEWESNGQPENNYKTTPPVLDEDGSFALVSKLTVDKSRWQQGNVFSCSVMHEALHNHYTQKSLSLSPGKGGGGSGGGIWELKKDVYVVELDWYPDAPGEMVVLTCDTPEEDGITWTLDQSSEVLGSGKTLTIQVKAAGDAGQYTCHKGGEVLSHSLLLLHKKEDGIWSTDILKDQKEPKNKTFLRCEAKNYSGRFTCWWLTTISTDLTFSVKSSRGSSDPQGVTCGAATLSAERVRGDNKEYEYSVECQEDSACPAAEESLPIEVMVDAVHKLKYENYTSSFFIRDIIKPDPPKNLQLKPLKNSRQVEVSWEYPDTWSTPHSYFSLTFCVQVQGKSKREKKDRVFTDKTSATVICRKNASISVRAQDRYYSSSWSEWASVPCSGGGGSGGGSGGGGSRNLPVATPDPGMFPCLHHSQNLLRAVSNMLQKARQTLEFYPCTSEEIDHEDITKDKTSTVEACLPLELTKNESCLNSRETSFITNGSCLASRKTSFMMALCLSSIYEDLKMYQVEFKTMNAKLLMDPKRQIFLDQNMLAVIDELMQALNFNSETVPQKSSLEEPDFYKTKIKLCILLHAFRIRAVTIDRVMSYLNAS
chain 2: B1 chain 2

biological target: T1, human IL-2 receptor (IL-2Rα, IL-2Rβ, …); assay: cell-based or functional assay

Row | IL-2 biological activity, HEK-IL-2 | IL-2 biological activity, HEK-IL-2-PD-1 | Binder
1 | < 0.1% | < 0.1% | B1
2 | 4% | 35% | B2
3 | 2% | 20% | B3
4 | < 0.1% | < 0.1% | B4

biological target: human IL-12 receptor complex (IL-12Rβ1, IL-12Rβ2) (human, UniProt P42701 24-662; Q99665 24-862); assay: cell-based or functional assay
Sequence (Q99665 24-862, chain 2 of 2, other chains not shown): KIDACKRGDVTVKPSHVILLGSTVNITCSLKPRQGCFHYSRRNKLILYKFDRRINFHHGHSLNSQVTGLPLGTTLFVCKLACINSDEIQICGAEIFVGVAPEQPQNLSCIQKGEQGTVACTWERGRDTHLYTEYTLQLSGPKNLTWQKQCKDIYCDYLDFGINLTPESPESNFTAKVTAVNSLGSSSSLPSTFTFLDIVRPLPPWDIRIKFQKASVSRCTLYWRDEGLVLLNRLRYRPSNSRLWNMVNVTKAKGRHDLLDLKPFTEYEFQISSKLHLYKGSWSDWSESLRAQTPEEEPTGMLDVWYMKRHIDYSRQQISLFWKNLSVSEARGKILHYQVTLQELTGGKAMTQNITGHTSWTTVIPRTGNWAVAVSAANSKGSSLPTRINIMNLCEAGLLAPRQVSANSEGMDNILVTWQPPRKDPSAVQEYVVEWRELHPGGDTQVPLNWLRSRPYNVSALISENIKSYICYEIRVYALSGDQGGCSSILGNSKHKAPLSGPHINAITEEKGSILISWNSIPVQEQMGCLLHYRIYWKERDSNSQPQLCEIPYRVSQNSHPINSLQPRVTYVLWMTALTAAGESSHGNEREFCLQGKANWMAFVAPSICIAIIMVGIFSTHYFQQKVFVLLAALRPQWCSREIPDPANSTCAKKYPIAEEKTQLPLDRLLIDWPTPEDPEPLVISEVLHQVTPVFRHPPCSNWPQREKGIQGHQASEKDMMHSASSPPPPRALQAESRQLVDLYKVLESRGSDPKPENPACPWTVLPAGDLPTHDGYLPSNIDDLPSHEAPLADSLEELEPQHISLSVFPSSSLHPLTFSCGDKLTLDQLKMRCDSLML

Row | IL-12 biological activity, HEK-IL-12 | IL-12 biological activity, HEK-IL-12-PD-1 | Binder
5 | < 0.2% | 24% | B1
6 | < 0.2% | 19% | B2
7 | < 0.2% | 25% | B3
8 | 1% | 25% | B4
